{"source": "paper PMC8766921", "about": "(Molecular biotechnology, 2021)", "target": "the molecule itself", "test": "SDS-PAGE under reducing and non-reducing conditions"}
{"protein": "BMP-4 growth factor (GF) from the B2/4 construct (BMP-2 pro-domain and BMP-4 GF sequence) (ligand, human, UniProt P12644 293-408, looked up, two N-linked glycans) SPKHHSQRARKKNKNCRRHSLYVDFSDVGWNDWIVAPPGYQAFYCHGDCPFPLADHLNSTNHAIVQTLVNSVNSSIPKACCVPTELSAISMLYLDEYDKVVLKNYQEMVVEGCGCR", "values": [{"measurement": "stoichiometry N", "result": 2}]}
